Data on 2 molecules can be found in patent US20190071499A1 (published 2019).

Assay [1] has as its target T1, human Fc fusion mouse IFN-α4 (mouse, UniProt P07351 25-186).
T1 construct: bought (SinoBiological); also called murine IFN-α4; not shown: human Fc
T1 sequence (looked up): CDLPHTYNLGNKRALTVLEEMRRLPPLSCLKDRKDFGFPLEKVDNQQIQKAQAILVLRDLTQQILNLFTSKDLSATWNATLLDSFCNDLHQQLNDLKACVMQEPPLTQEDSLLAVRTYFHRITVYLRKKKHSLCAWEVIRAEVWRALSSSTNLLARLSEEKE
In words: ELISA, human Fc fusion mouse IFN-α.

Assay [2] has as its target T2, human Fc fusion mouse IFN-α2 (mouse, UniProt P01573 24-190).
T2 construct: bought (SinoBiological); also called murine IFN-α2; murine INFA2; not shown: human Fc
T2 sequence (looked up): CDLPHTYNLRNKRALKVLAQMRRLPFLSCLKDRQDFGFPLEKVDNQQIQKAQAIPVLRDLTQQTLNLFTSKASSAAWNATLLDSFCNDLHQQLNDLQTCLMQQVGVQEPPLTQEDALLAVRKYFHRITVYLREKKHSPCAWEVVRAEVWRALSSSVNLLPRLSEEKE
Description: ELISA, human Fc fusion mouse IFN-α.

The target of the next assay is T3, g1 IFN-α10 (human, UniProt P01566 24-189).
T3 construct: in-house fusion; also called IFN-α10-Gaussia luciferase fusion protein; not shown: Gaussia luciferase (naturally secreted), N-terminal fusion partner
In words: LIPS, IFN-Gaussia luciferase fusion proteins.

The target of the next assay is T4, g1mIFN-α9 (mouse, UniProt P09235 24-190).
T4 construct: also called murine IFN-α9 (Gaussia luciferase fusion); not shown: Gaussia luciferase fusion partner
T4 sequence (looked up): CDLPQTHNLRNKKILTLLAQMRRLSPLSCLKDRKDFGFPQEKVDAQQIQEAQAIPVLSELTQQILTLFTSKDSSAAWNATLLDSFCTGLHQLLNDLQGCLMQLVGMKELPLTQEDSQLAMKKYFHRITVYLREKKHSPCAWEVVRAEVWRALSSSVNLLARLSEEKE
Description: LIPS.

In the next assay the target is T5, g1mIFN-α1 (mouse, UniProt P01572 24-189).
T5 construct: also called murine IFN-α1 (Gaussia luciferase fusion); not shown: Gaussia luciferase fusion partner
T5 sequence (looked up): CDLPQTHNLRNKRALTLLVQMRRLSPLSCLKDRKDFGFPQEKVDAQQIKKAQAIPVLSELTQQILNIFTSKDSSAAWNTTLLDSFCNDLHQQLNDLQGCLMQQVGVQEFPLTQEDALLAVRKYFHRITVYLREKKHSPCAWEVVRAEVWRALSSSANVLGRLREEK
In words: LIPS.

Another assay concerns the target T6, human IFN-α10 (human, UniProt P01566 24-189).
T6 construct: recombinant protein; also called rhIFN-α10
Description: ELISA or LIPS (Table 7 summary).

In another assay the target is T7, human IFN-α16 (human, UniProt P05015 24-189).
T7 construct: recombinant protein; also called rhIFN-α16
In words: ELISA or LIPS (Table 7 summary).

In assay [3] the target is T8, human IFN-α1 (human, UniProt P0DY56 24-189).
T8 construct: commercial recombinant protein; also called IFN-alpha 1beta; IFN-α1/13
Description: ELISA or LIPS (Table 7 summary).

A further assay deals with T9, human IFN-α21 (human, UniProt P01568 24-189).
T9 construct: commercial recombinant protein; also called rhIFN-α21; IFN-α21 (PBL)
Description: ELISA or LIPS (Table 7 summary).

A further assay has as its target T10, human IFN-α14 (human, UniProt P01570 24-189).
T10 construct: commercial recombinant protein; also called rhIFN-α14; IFN-α14 (ATGen)
Description: ELISA or LIPS (Table 7 summary).

The next assay has as its target T11, human IFN-α4 (human, UniProt P05014 24-189).
T11 construct: commercial recombinant protein; also called rhIFN-α4; IFN-α4 (SinoBiological)
In words: ELISA or LIPS (Table 7 summary).

Assay [4] addresses T8, human IFN-α1. Description: ELISA or LIPS (Table 7 summary; ELISA at 300 ng/ml MAB in paragraph 311).
Description: In this experiment, examined MABs (300 ng/ml) were incubated for 2 hours with antigen-coated plates (coating overnight at 1 μg/ml in PBS, followed by wash out and blocking with 2% BSA in PBS). The plates were subsequently washed and binding of MABs was detected with anti-human HRP-conjugated secondary antibody.

T6 sequence (P01566 24-189 limits assumed): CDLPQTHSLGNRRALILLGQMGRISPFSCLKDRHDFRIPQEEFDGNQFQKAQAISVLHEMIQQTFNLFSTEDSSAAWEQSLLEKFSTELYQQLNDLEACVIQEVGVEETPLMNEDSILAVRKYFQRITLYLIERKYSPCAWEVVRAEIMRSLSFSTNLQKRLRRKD
T7 sequence (P05015 24-189 limits assumed): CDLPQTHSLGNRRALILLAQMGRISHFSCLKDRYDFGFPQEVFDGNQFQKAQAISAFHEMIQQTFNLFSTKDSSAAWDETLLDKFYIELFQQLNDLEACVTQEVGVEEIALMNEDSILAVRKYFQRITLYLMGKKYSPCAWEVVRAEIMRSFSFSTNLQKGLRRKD
T8 sequence (P0DY56 entry or part of it limits assumed): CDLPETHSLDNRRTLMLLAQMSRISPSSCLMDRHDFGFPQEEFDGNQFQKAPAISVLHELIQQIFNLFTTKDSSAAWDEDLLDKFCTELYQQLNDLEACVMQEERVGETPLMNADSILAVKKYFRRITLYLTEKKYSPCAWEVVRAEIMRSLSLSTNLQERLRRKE
T9 sequence (P01568 24-189 limits assumed): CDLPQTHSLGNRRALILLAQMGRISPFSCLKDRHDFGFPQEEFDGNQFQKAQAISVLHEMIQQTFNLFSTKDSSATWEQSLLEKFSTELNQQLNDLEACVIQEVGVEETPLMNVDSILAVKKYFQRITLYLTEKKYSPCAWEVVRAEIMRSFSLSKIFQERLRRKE
T3 sequence (P01566 24-189): as the sequence (P01566 24-189 limits assumed) above
T11 sequence (P05014 24-189 limits assumed): as the sequence (P01566 24-189 limits assumed) above, with G19A, P26H, R37G, I38F, Q40E, N46H, I132T, R134K counted along it
T10 sequence (P01570 24-189 limits assumed): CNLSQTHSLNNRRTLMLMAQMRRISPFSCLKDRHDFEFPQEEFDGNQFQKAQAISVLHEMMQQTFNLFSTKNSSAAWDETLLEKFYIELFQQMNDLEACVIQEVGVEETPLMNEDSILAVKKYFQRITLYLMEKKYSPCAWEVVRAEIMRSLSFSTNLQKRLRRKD

B1: 31B4 (antibody, human IgG1, kappa, V domains shown)
VH: QIQLQESGPGLVRPTETLSLTCSVSGDSISQSSHYWAWIRQPPGKGPEWIGSVYFSSMTHYNPSLTSRVSISIDKAMNKFSLKVTSVTVADTATYYCARQALARVGAMNWFDPWGQGSLVTVSS
VL: DIIMTQSPESLPVSLGEGVTINCKSSQSVFFTSSNRSCLAWYQQKPGQSPKLLIYWASTRQSGVPDRFTGSGSGTDFSLTIAGLQVEDVAVYFCQQCHASPPTFGGGTRLELRR
notes: human-derived IgG1, kappa; clonally related to 26B9; also called MAB 31B4; hMAB 31B4
For B1, the binding result in assay [1] is recorded as “no binding”; in assay [2] it was “no binding”; in the assay with g1 IFN-α10, “binds”; with g1mIFN-α9 it was “no binding”; with g1mIFN-α1, “no binding”; with human IFN-α10, “binds”. In addition, the binding result in the assay with human IFN-α16, with human IFN-α1 [3], in the assay with human IFN-α21, with human IFN-α14 and with human IFN-α4 was “binds” in each case.

B2: 5D1 (antibody, human IgG1, kappa, V domains shown)
VH: EVQLVQAGAEVKAPGESLRISCKVSGYTFTSYWISWVRQIPGKGLEWMVKIDPRDSYTIYNPSFQGHVSISVDKSITTVYLQWSSLQASDTAIYYCVRHYLTQSLVDYFDHWGQGTLVAVSS
VL: DIQMTQSPSSLSASVGDSVTITCRASQSVSNYFHWYRQKPGKAPELLIYSASNLQTGVPSRFTGSGSGTECTLTITSLQPDDFATYYCQQTHGYPFTFGQGTKLDVRR
notes: human-derived IgG1, kappa; also called MAB 5D1; hMAB 5D1
Take B2: the binding result with human IFN-α1 [4] is reported as “no binding”; in assay [1] it was “no binding”; in assay [2], “no binding”; with g1mIFN-α9, “no binding”; with human IFN-α10 it was “binds”; with human IFN-α16, “binds”. The binding result with human IFN-α21 was “binds”.
